Laboratory results published in patent publication US7211424B1, “Mammalian Subtilisin/kexin isozyme SKI-1: a proprotein convertase with a unique cleavage specificity” (Institut de Recherches Cliniques de Montreal, priority 1999, dated 2007).

Tests used:
[1] = substrate: CC(C)C[C@H](NC(=O)[C@H](CO)NC(=O)[C@H](CCCNC(=N)N)NC(=O)[C@H](Cc1ccccc1)NC(=O)[C@@H](NC(=O)c1ccccc1N)C(C)C)C(=O)N[C@@H](CCCCN)C(=O)N[C@@H](Cc1ccc(O)cc1)C(=O)N[C@@H](C)C(=O)N[C@@H](CCC(=O)O)C(=O)N[C@@H](CO)C(=O)N[C@@H](CC(=O)O)C(=O)N[C@@H](Cc1ccc(O)c([N+](=O)[O-])c1)C(=O)N[C@@H](C)C(N)=O; experiment: Hydrolysis of quenched fluorogenic substrates by shed-hSKI-1; assay type: biochemical, human; conditions: other: shed-hSKI-1; averages of duplicate assays; pH 6.5; 37.0 °C
Procedure: (§1) For digestions, each peptide was typically reacted at 37° C. with 10 μl of the concentrated enzyme preparation in a buffer consisting of 50 mM HEPES (N-2-Hydroxyethyl piperazine-N′-2 EthaneSulfonic acid) (ICN Biomedicals Inc), 50 mM MES (2-[N-Morpholino] EthaneSulfonic acid) (Sigma Chem Co.), and 3 mM Ca^2+-acetate (pH 6.5). The digestion products were separated by RP-HPLC on a Beckman 5 μm Ultrasphere C18 column (0.2×25 cm) and eluted with a 1%/min linear gradient of aqueous 0.1% TFA/CH3CN ([…]) at a flow rate of 1 ml/min. The collected peptides were characterized by mass spectrometry and amino acid composition, which was also used to quantitate the amount of various substrates and products. The digestions of the quenched fluorogenic peptides were analyzed by RP-HPLC using a dual UV (210 nm) and fluorescence (excitation and emission wavelengths of 320 and 420 nm, respectively) detector (Rainin).
(§2) Km(app), Vmax(app) and Ki(app) determinations—Following digestion reactions with increasing substrate concentrations, the products were separated by RP-HPLC. The rate of substrate hydrolysis was obtained from the integrated peak areas of the chromatograms. Km(app) and Vmax(app) values were estimated using nonlinear regression analysis (Enzfitter software; Elsevier Biosoft, Cambridge, UK) of plots of the hydrolysis rate vs the substrate concentration. […] The Ki(app) values were estimated from Dixon plots as described (16). For the two quenched peptides, kinetic parameters were determined as described (17).

[2] = substrate: CC(C)C[C@H](NC(=O)[C@H](CO)NC(=O)[C@H](CCCNC(=N)N)NC(=O)c1ccccc1N)C(=O)N[C@@H](CCCCN)C(=O)N[C@@H](Cc1ccc(O)cc1)C(=O)N[C@@H](C)C(=O)N[C@@H](CCC(=O)O)C(=O)N[C@@H](CO)C(=O)N[C@@H](CC(=O)O)C(=O)N[C@@H](Cc1ccc(O)c([N+](=O)[O-])c1)C(=O)N[C@@H](C)C(N)=O; experiment: as above; assay type: biochemical, human; conditions: other: shed-hSKI-1; averages of duplicate assays; pH 6.5; 37.0 °C
Procedure: as §1, §2

[3] = target: T1, peptide I, hproBDNF(50-63)
T1 chain: KAGSRGLTSLADTF

[4] = target: T2, peptide VI, hSKI-1 (156-172)
T2 chain: WQSSRPLRRASLSLGSG

[5] = target: T3, peptide (x) SREBP-2 10 mer
T3 chain: SGSGRSVLSFES

[6] = target: T4, peptide XI, Q-hSKI-1 (134-142): Abz-RSLKYAESD-Y(NO2)-A
T4 chain: XRSLKYAESDXA

[7] = target: T5, peptide III, hSKI-1(174-191)
T5 chain: WHATGRHSSRRLLRAIPR

[8] = target: T6, peptide IX, hSKI-1 (128-142)
T6 chain: PQRKVFRSLKYAESD

[9] = target: T7, peptide X, Q-hSKI-1 (132-142): Abz-VFRSLKYAESD-Y(NO2)-A
T7 chain: XVFRSLKYAESDXA

[10] = target: T8, peptide II, hSREBP-2(504-530)
T8 chain: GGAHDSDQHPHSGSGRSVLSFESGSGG

[11] = target: T9, peptide IV, hSKI-1 (174-188+LE)
T9 chain: WHATGRHSSRRLLRALE

[12] = target: T10, peptide VII, hSKI-1 (187-201)
T10 chain: RAIPRQVAQTLQADV

[13] = target: T11, peptide VIII, hSKI-1 (128-136)
T11 chain: PQRKVFRSL

[14] = target: T12, peptide (iv) hSKI-1 (181-188+Glu)
T12 chain: SSRRLLRAIE

B1: shed-hSKI-1 (Homo sapiens) (protein)
chain: RAIPRQVAQTLQADVLWQMGYTGANVRVAVFDTGLSEKHPHFKNVKERTNWTNERTLDDGLGHGTFVAGVIASMRECQGFAPDAELHIFRVFTNNQVSYTSWFLDAFNYAILKKIDVLNLSIGGPDFMDHPFVDKVWELTANNVIMVSAIGNDGPLYGTLNNPADQMDVIGVGGIDFEDNIARFSSRGMTTWELPGGYGRMKPDIVTYGAGVRGSGVKGGCRALSGTSVASPVVAGAVTLLVSTVQKRELVNPASMKQALIASARRLPGVNMFEQGHGKLDLLRAYQILNSYKPQASLSPSYIDLTECPYMWPYCSQPIYYGGMPTVVNVTILNGMGVTGRIVDKPDWQPYLPQNGDNIEVAFSYSSVLWPWSGYLAISISVTKKAASWEGIAQGHVMITVASPAETESKNGAEQTSTVKLPIKVKIIPTPPRSKRVLWDQYHNLRYPPGYFPRDNLRMKNDPLDWNGDHIHTNFRDMYQHLRSMGYFVEVLGAPFTCFDASQYGTLLMVDSEEEYFPEEIAKLRRDVDNGLSLVIFSDWYNTSVMRKVKFYDENTRQWWMPDTGGANIPALNELLSVWNMGFSDGLYEGEFTLANHDMYYASGCSIAKFPEDGVVITQTFKDQGLEVLKQETAVVENVPILGLYQIPAEGGGRIVLYGDSNCLDDSHRQKDCFWLLDALLQYTSYGVTPPSLSHSGNRQRPPSGAGSVTPERMEGNHLHRYSKVLEAHLGDPKPRPLPACPRLSWAKPQPLNETAPSNLWKHQKLLSIDLDKVVLPNFRSNRPQVRPLSPGESGAWDIPGGIMPGRYNQEV
notes: SKI-1 is further processed to remove the transmembrane domain that keeps it integrated in the ER membrane, which generates a SKI-1 soluble form; made in house; host or cells: HK293 cells stably transfected with full-length hSKI-1 in pcDNA3; shed enzyme in the medium
Q: How did the Km [1] turn out when B1 was run?
A: 31.3 µM

Q: What about the Vmax [1] of the same protein?
A: 0.567 µmol/min

Q: And the Km [2]?
A: 8.7 µM

Q: And the Vmax [2]?
A: 0.948 µmol/min

Q: And the “cleavage of synthetic peptide (viii): efficiently cleaved” value [3]?
A: only the peptides (iii), (iv), (vii), (viii) (ix) and (x) are efficiently cleaved by the recombinant SKI-1

Q: And the “cleavage of synthetic peptide (i): not efficiently cleaved” value [4]?
A: only the peptides (iii), (iv), (vii), (viii) (ix) and (x) are efficiently cleaved by the recombinant SKI-1

Q: And the “cleavage of synthetic peptide (x): efficiently cleaved” value [5]?
A: only the peptides (iii), (iv), (vii), (viii) (ix) and (x) are efficiently cleaved by the recombinant SKI-1

Q: And the “cleavage of quenched fluorogenic peptide (HPLC with UV and fluorescence detection)” value [6]?
A: clearly revealed a single site of cleavage in peptides (a) and (b)

Q: And the “cleavage of synthetic peptide (ii): not efficiently cleaved” value [7]?
A: only the peptides (iii), (iv), (vii), (viii) (ix) and (x) are efficiently cleaved by the recombinant SKI-1

Q: And the “cleavage of synthetic peptide (vii): efficiently cleaved” value [8]?
A: only the peptides (iii), (iv), (vii), (viii) (ix) and (x) are efficiently cleaved by the recombinant SKI-1

Q: What about the “kinetic parameters (Vmax/Km) relative to quenched peptide (b)” value [9] of the same protein?
A: this peptide is 6-fold more efficient that the nearest candidate quenched peptide (b)

Q: And the “cleavage of synthetic peptide (ix): efficiently cleaved” value [10]?
A: only the peptides (iii), (iv), (vii), (viii) (ix) and (x) are efficiently cleaved by the recombinant SKI-1

Q: What about the “cleavage of synthetic peptide (iii): efficiently cleaved” value [11] of the same protein?
A: only the peptides (iii), (iv), (vii), (viii) (ix) and (x) are efficiently cleaved by the recombinant SKI-1

Q: And the “cleavage of synthetic peptide (v): not efficiently cleaved” value [12]?
A: only the peptides (iii), (iv), (vii), (viii) (ix) and (x) are efficiently cleaved by the recombinant SKI-1

Q: And the “cleavage of synthetic peptide (vi): not efficiently cleaved” value [13]?
A: only the peptides (iii), (iv), (vii), (viii) (ix) and (x) are efficiently cleaved by the recombinant SKI-1

Q: And the “cleavage of synthetic peptide (iv): efficiently cleaved” value [14]?
A: only the peptides (iii), (iv), (vii), (viii) (ix) and (x) are efficiently cleaved by the recombinant SKI-1
